Positions count from the first letter of the chain named.
B1: phage clone No. 29 (C29) (VHH)
VHH: QVQLVESGGGLVQAGGSLRLSCVASGFTSDDYVIGWFRQAPGKEREGVSCISSSDGTTNYADSVKGRFTISSDNAKNTVYLQMNSLKPEDTAVYYCAADPMRVCPYSGTYYGILGFGTSGQGTQVTVSS
B2: S13-cHis antibody (VHH)
VHH: QLQLVESGGGLVQPGGSLRLSCVVSGSIFAINTMGWYRQAPGKQRELVATMHSYGSTNYADSVKGRFTISRDNAKKTVYLQMNSLKPADTAVYYCHADDTGWGTVDSWGQGTQVTVSS
notes: HEK293 construct; an E. coli preparation is also described
B3: phage clone No. 70 (S22) (VHH)
VHH: B2 VHH with V23A, V24A, A30S, Y54T, A88D, A97V, T100M
B4: anti-CD8α single domain antibody S22 (VHH, not shown: small tags and cut ends)
VHH: B2 VHH with V23A, V24A, A30S, Y54T, A88D, A97V, T100M
notes: Only the E. coli expression is described for this antibody
B5: anti-CD8α single domain antibody S32 (VHH, not shown: small tags and cut ends)
VHH: B2 VHH with V23A, V24A, A30S, Y54T, A88D, A97V, T100M
notes: as for B4
B6: phage clone No. 66 (S18) (VHH)
VHH: QLQLVESGGGLVQPGGSLRLSCAASGSIFSINTMGWYRQAPGKQRELVATMTSHGSTNYADSVKGRFTISRDNSKNTVYLQMNSLKLQDTAVYYCNANDMGWGTVDAWGQGTLVTVSS
B7: anti-CD8α single domain antibody C45 (VHH, not shown: small tags and cut ends)
VHH: B2 VHH with L2V, V23A, V24A, S27P, A30S, A40V, Y54T, A88D, A97V
notes: as for B4
B8: phage clone No. 45 (C45) (VHH)
VHH: B2 VHH with L2V, V23A, V24A, S27P, A30S, A40V, Y54T, A88D, A97V
B9: phage clone No. 30 (C30) (VHH)
VHH: B2 VHH with L2V, V24A, T50D, Y54T, T77K, A88D, A97V, T100R
B10: phage clone No. 61 (S13) (VHH)
VHH: B2 VHH
B11: phage clone No. 24 (C24) (VHH)
VHH: B2 VHH with L2V, V23A, V24A, S27P, A30S, Y54T, A88D, A97V, T112I
B12: anti-CD8α single domain antibody C30 (VHH, not shown: small tags and cut ends)
VHH: B2 VHH with L2V, V24A, T50D, Y54T, T77K, A88D, A97V, T100R
notes: as for B4
B13: phage clone No. 27 (C27) (VHH)
VHH: B2 VHH with Y54G, N73A, K75P, T100S, T112I
B14: anti-CD8α single domain antibody S18 (VHH, not shown: small tags and cut ends)
VHH: B6 VHH
notes: as for B4
B15: phage clone No. 20 (C20) (VHH)
VHH: QVQLVESGGGLVQPGGSLRLSCAASGSIFSINTMGWYRQAPGKQRELVATMHSTGSTNYADSVKGRFTISRDNAKKTVYLQMNSLEPDDTAVYYCHVDDTGWGTVDSWGQGTQVTVS
B16: anti-CD8α single domain antibody C20 (VHH, not shown: small tags and cut ends)
VHH: B15 VHH
notes: as for B4
B17: phage clone No. 77 (S29) (VHH)
VHH: QLQLVESGGGLVQPGGSLRLSCTASGIIFSINTMGWYRQAPGKQRELVADISSFGSTNYADSVKGRFTISRDNAKNSVYLQMNSLKPEDTAVYYCNAHDKGWGTVDSWGQGTQVTVSS
B18: phage clone No. 53 (S5) (VHH)
VHH: QVQLVESGGGLVQAGGSLRVSCAASGGTFSSTAMGWFRQAPGKEREFVAAISWSGGYTYYADSVRGRFTISRDNALNTVSLQMNSLKPEDTAVYYCAADISGLDTVAAGIFTEPNIDYWGKGTLVTVSS
B19: phage clone No. 42 (C42) (VHH)
VHH: QVQLVESGGGLVQAGGSLRLSCAASGLTFEDYAIGWFRQAPGKEREGISCIRIYDGNTYSAESVKGRFTISSDNAKNQVYLQINTLKPEDTAVYYCAAGSYYSCSVYPDYDMDYWGKGTLVTVSS
B20: phage clone No. 37 (C37) (VHH)
VHH: B19 VHH with V2L
B21: phage clone No. 2 (C2) (VHH)
VHH: B19 VHH with A14P, L27F, F29L, E30D, D31Y
B22: anti-CD8α single domain antibody S7 (VHH, not shown: small tags and cut ends)
VHH: QLQLVESGGGLVQPGGSLRLSCAASGSIFSINGMGWYRQAPGKQREAVAVITSGGKIDYLDSVKGRFTISRDSAKNTVALQMNSLKPEDTAVYYCNAYGDVRRGEVRWGQGTQVTVSS
notes: as for B4
B23: phage clone No. 55 (S7) (VHH)
VHH: B22 VHH
B24: anti-CD8α single domain antibody S23 (VHH, not shown: small tags and cut ends)
VHH: B22 VHH with L2V, A47L, V50A, I57T, R102Q
notes: as for B4
B25: phage clone No. 71 (S23) (VHH)
VHH: B22 VHH with L2V, A47L, V50A, I57T, R102Q
B26: anti-CD8α single domain antibody S6 (VHH, not shown: small tags and cut ends)
VHH: QVQLVESGGGLVQPGGSLRLSCAVSGTIFSINTMGWYRQVPGKQRELVATITSSGSTKYADSVKGRFTVSRDNAKRTVFLQMDSLKPEDTAVYYCHANDVGWGTVNAWGQGTLVTVSS
notes: as for B4
B27: phage clone No. 54 (S6) (VHH)
VHH: B26 VHH
B28: phage clone No. 46 (C46) (VHH)
VHH: QVQLVESGGGLVQAGGSLRLSCAASGVTFDDLAIGWFRQVPGKGREGVSTIGTSDGTAYYADSVKGRFTISSDNAKNTVYLQMNSLKPEDTAVYYCAVDLDYGLGSLLPMGYDYWGQGTQVTVSS

Experiments:
[1] = target: T1, CD8α-Fc fusion protein (human); test: phage ELISA on coated CD8α-Fc
T1 construct: also called CD8 α-Fc protein; CD8α-Fc tag antigen
T1 sequence (chain, as listed by the source): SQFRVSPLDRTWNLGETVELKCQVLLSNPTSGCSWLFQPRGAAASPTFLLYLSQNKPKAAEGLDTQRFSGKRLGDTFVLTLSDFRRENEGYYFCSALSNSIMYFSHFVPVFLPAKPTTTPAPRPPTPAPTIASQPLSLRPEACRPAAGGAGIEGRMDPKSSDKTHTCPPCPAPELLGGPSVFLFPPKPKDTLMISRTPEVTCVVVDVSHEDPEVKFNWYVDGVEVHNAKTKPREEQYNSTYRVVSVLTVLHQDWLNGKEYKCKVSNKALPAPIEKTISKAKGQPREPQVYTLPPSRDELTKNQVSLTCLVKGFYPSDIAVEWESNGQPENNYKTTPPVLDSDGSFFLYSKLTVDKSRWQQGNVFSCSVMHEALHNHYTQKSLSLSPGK
Experimental: After 3-4 rounds of panning, 96 clones were randomly picked from the plate subjected to the last round of panning for identification. 96 single colonies were randomly picked and respectively cultured to produce and purify phages. The plate was coated with CD8α-Fc fusion protein at 4° C. overnight, then blocked with 3% BSA, and reacted for 1 hour at 37° C. Subsequently, the phage supernatant obtained after infection was added into each well (the control group was blank phage), and incubated for 1 hour at 37° C. After PBST washing, horseradish peroxidase labeled anti-M13 secondary antibody (purchased from Beijing Yiqiao Shenzhou Biotechnology Co., Ltd.) was added, and reacted for 1 hour at room temperature. After washing, a tetramethylbenzidine (TMB) chromogenic solution was added and an absorption value at 450 nm was read. Meanwhile, the plate was coated with an Fc protein at 4° C. overnight, blocked with 3% BSA, and reacted for 1 hour at 37° C. After washing, the phage supernatant obtained after infection (the control group was blank phage) was added to react for 1 hour at 37° C. After washing, the horseradish peroxide labeled anti-M13 secondary antibody (purchased from Beijing Yiqiao Shenzhou Biotechnology Co., Ltd.) was added to react for 1 hour at room temperature. After that, a TMB chromogenic solution was added and an absorption value at 450 nm was read. Where, when a ratio obtained by an OD value being divided by an OD value of blank control was >=4, it was judged that a candidate antibody could bind the CD8α-Fc protein; meanwhile, a ratio obtained by the CD8α-Fc binding OD value of the above antibody capable of binding the CD8 α-Fc antigen protein being divided by the Fc protein binding OD value was >=5, it was considered that the candidate antibody could specifically bind the CD8α part rather than the Fc part. […] The bacteria in candidate clone well were transferred to an LB liquid culture medium containing 100 μg/mL ampicillin so as to perform plasmid extraction and sequencing.

[2] = target: T2, human CD8α full-length protein (human, UniProt P01732 22-235); test: flow cytometry on MC38-CD8α cells, secondary antibody-PE
T2 construct: whole, on cells; The same entry is used for MC38-CD8α transfectants and for human CD8+ T cells from peripheral blood; the assay field says which cells; also called cell surface CD8α; MC38-CD8α cells
T2 sequence (P01732 22-235): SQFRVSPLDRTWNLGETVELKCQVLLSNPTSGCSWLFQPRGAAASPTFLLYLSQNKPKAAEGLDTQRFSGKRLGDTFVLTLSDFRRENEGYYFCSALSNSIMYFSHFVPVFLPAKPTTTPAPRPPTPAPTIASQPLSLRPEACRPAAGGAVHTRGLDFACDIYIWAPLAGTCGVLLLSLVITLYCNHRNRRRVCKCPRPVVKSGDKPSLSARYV
Experimental: Mouse colon cancer MC38 cell lines stable transfected with human CD8α full-length protein gene were constructed to obtain MC38 cells (MC38-CD8α cells) stably expressing human CD8α proteins on the cell membrane. Prior to use, the cells were cultured to >90% convergence. The anti-CD8α single domain antibody was used to perform flow cytometry on these cells for quantitative analysis of indirect immunofluorescence staining so as to determine the quantity of receptors on surface of each cell.
The cells were collected and suspended to a concentration of 2.5×10⁶ cells/mL. 200 μL of cell aliquot samples were mixed with 20 μL of primary antibody, and the obtained mixture was incubated for 30 min on ice. The cells were centrifuged, washed and re-suspended, then 5 μL of secondary antibody-PE conjugate was added, and then the above mixture was incubated for 30 minutes on ice. The cells were washed twice, re-suspended and underwent flow cytometry on BD FACSCelesta™. For each tube, at least 5×10⁴ events were collected. All the analyses were single colors, and PE was detected in […].

[3] = target: T1, CD8α-Fc fusion protein; test: ELISA on coated CD8α-Fc, relative to C2-cHis control
Experimental: (§1) The CD8 α-Fc protein was transiently expressed by HEK293 and purified by protein A affinity chromatography. The plate was coated with the obtained CD8α-Fc protein in a concentration of 0.5 μg/well at 4° C. overnight, and then the gradient dilution series of the obtained anti-CD8α single domain antibody protein was added to react for 1 hour at room temperature. After washing, anti-his horseradish peroxidase labeled antibody was added to react for 1 hour at room temperature. After washing, a chromogenic solution was added, and an absorption value at 450 nm was read. The data processing and plotting analysis were performed by using software SotfMaxPro v5.4. […] Of the 10 selected antibodies (see Table 5 for details), the relative activities of different anti-CD8α single domain antibodies were compared by using C2-cHis as control, so as to reflect the affinity of the antibodies on CD8α. Of the 10 tested antibodies, C37, C42, C46, S5 and S36 have relatively high binding activity.

[4] = target: T1, CD8α-Fc fusion protein; test: ELISA on coated CD8α-Fc, anti-his-HRP, four-parameter fit
Experimental: as §1

Binder	OD450 [1]	Positive rate (%) [2] [%]	other results
B1	1.75		
B2		96.3	Relative activity (%) [3]: 142%; EC50 [4]: 2.89 ng/mL
B3	1.73		
B4		97	
B5		99.1	
B6	1.72		
B7		99.1	
B8	2.42		
B9	2.03		
B10	1.71		
B11	2.35		
B12		98.8	
B13	2.74		
B14		99.2	
B15	3.19		
B16		98.9	
B17	1.63		
B18	1.2		
B19	3.18		
B20	3.2		
B21	3.21		
B22		99.3	
B23	1.61		
B24		99.3	
B25	1.62		
B26		97.5	
B27	1.3		
B28	2.35		
